Test results: US20020055615A1
Ends that are not written are not given here.

How the values were obtained:
[1] = target: AM receptor (AM-R) on human tumor cell lines (human); assay: cell-based or functional assay
[2] = target: AM receptor (AM-R) on human tumor cell lines (human); assay: receptor binding on MCF-7 cells
[3] = target: AM receptor (AM-R) on human tumor cell lines (human); assay: displacement of 125I-AM from MCF-7 cells by unlabelled AM
[4] = target: AM receptor (AM-R) on human tumor cell lines (human); assay: 125I-AM (0.2 nM per 5×10^5 cells) binding to NCI-H1264 cells

- increase in cellular cAMP (ED50) [1]: 5 nM
- maximum elevation of cellular cAMP (fold of control) [1]: 3
- Kd [2]: 2 nM
- IC50 [3]: 10 nM
- radioactivity bound (cpm) [4]: 2260 cpm
B1: adrenomedullin (AM) (peptide, UniProt P35318 95-146, looked up)
peptide: YRQSMNNFQGLRSFGCRFGTCTVQKLAHQIYQFTDKDKDNVAPRSKISPQGY-NH2
modifications: ends and bridges not checked; also: 125I-labelled as tracer in receptor assays
